{"source": "patent US6927286B1", "about": "“Bleomycin gene cluster components and their uses” (The Regents of the University of California, priority 1999, dated 2005)", "molecules": {"B1": {"name": "PptA: phosphopantetheinyl transferase of 246 amino acids encoded by pptA from S. verticillus ATCC15003 (protein)", "chain": "MIAALLPSWAVTEHAFTDAPDDPVSLLFPEEAAHVARAVPKRLHEFATVRVCARAALGRLGLPPGPLLPGRRGAPSWPDGVVGSMTHCQGFRGAAVARAADAASLGIDAEPNGPLPDGVLAMVSLPSEREWLAGLAARRPDVHWDRLLFSAKESVFKAWYPLTGLELDFDEAELAVDPDAGTFTARLLVPGPVVGGRRLDGFEGRWAAGEGLVVTAIAVAAPAGTAEESAEGAGKEATADDRTAVPHHHHHH"}, "B2": {"name": "Sfp PPTase from the surfactin producer Bacillus subtilis (protein)", "chain": "MKIYGIYMDRPLSQEENERFMSFISPEKREKCRRFYHKEDAHRTLLGDVLVRSVISRQYQLDKSDIRFSTQEYGKPCIPDLPDAHFNISHSGRWVICAFDSQPIGIDIEKTKPISLEIAKRFFSKTEYSDLLAKDKDEQTDYFYHLWSMKESFIKQEGKGLSLPLDSFSVRLHQDGQVSIELPDSHSPCYIKTYEVDPGYKMAVCAAHPDFPEDITMVSYEELL"}, "B3": {"name": "BlmI: type II peptidyl carrier protein of 90 amino acids encoded by blmI (protein)", "chain": "MGAPRGERTRRRALERDIAAIWAETLGRDSVGPHEDFAALGGNSIHAIKITNRVEELVDAELSIRVLLETRTVAGMTDHVHATLTGERDRHHHHHH", "modifications": "left off: small tags and cut ends", "notes": "type II peptidyl carrier protein of 90 amino acids encoded by blmI"}}, "key": {"[1]": {"tested_on": "T1, holo-BlmI (4'-phosphopantetheinylated BlmI, produced from pBS2)", "T1 sequence": "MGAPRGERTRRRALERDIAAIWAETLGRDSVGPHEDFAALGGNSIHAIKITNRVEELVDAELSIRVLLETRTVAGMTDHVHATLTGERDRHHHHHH"}, "[2]": {"tested_on": "T2, apo-BlmI (type II peptidyl carrier protein BlmI, apo-form, produced from pBS2)", "T2 sequence": "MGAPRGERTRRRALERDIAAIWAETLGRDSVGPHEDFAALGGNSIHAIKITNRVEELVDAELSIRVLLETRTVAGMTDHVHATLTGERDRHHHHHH"}, "[3]": {"molecular_target": "apo-BlmI (type II peptidyl carrier protein BlmI, apo-form, produced from pBS2) (Streptomyces verticillus ATCC15003)", "assay": "cell-based or functional assay"}, "[4]": {"tested_on": "BlmVIII", "sequence (as listed by the source, one chain of several)": "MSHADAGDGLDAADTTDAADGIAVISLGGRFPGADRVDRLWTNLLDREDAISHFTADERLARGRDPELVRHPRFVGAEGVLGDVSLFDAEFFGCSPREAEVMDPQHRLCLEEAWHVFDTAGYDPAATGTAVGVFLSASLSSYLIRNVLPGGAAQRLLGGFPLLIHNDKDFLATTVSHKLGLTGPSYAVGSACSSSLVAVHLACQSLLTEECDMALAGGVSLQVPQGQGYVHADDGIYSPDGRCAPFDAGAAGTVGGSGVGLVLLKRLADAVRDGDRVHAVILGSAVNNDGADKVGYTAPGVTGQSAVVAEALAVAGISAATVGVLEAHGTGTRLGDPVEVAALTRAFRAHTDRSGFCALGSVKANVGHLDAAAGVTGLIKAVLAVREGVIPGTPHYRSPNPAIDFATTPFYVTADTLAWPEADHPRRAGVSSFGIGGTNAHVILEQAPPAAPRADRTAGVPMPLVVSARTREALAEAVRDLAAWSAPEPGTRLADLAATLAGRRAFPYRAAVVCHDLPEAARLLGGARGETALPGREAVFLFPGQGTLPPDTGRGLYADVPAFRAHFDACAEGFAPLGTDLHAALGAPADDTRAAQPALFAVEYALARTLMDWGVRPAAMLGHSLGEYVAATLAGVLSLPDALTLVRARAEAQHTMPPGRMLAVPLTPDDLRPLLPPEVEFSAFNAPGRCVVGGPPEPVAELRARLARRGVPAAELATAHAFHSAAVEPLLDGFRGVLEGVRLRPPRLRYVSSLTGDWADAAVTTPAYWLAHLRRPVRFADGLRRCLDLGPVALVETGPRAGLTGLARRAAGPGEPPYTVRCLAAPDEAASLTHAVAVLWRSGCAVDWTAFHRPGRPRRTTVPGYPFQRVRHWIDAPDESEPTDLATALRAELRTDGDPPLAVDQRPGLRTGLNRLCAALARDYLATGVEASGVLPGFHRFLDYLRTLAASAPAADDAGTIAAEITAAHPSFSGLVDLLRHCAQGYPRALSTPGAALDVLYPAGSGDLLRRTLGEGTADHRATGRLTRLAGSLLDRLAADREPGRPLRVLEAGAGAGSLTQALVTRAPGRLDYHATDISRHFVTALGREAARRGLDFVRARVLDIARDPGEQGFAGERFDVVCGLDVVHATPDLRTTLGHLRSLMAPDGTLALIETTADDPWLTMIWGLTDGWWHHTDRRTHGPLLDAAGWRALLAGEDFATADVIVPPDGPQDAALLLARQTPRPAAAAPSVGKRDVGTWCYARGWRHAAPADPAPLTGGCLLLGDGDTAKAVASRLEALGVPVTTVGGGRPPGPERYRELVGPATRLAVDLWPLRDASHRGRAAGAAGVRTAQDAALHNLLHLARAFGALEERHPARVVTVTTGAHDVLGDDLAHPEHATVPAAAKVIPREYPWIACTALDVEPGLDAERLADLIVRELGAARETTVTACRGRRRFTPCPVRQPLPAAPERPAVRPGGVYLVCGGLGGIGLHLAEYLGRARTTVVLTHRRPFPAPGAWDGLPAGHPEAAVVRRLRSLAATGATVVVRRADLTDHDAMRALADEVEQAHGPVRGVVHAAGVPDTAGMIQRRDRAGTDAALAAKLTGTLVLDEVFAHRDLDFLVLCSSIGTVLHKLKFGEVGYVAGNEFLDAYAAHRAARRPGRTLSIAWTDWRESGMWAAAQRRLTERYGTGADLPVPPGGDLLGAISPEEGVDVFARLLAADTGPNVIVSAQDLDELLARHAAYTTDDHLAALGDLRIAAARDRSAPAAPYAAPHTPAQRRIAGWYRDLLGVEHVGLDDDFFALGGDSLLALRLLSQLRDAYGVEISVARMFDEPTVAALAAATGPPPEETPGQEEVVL", "assay": "In vitro phosphopantetheinylation assay of PptA", "format": "biochemical, S. verticillus", "conditions": "(3H)-(pantetheinyl)-CoASH, autoradiography"}, "[5]": {"tested_on": "MBlmX-2", "sequence (as listed by the source, one chain of several)": "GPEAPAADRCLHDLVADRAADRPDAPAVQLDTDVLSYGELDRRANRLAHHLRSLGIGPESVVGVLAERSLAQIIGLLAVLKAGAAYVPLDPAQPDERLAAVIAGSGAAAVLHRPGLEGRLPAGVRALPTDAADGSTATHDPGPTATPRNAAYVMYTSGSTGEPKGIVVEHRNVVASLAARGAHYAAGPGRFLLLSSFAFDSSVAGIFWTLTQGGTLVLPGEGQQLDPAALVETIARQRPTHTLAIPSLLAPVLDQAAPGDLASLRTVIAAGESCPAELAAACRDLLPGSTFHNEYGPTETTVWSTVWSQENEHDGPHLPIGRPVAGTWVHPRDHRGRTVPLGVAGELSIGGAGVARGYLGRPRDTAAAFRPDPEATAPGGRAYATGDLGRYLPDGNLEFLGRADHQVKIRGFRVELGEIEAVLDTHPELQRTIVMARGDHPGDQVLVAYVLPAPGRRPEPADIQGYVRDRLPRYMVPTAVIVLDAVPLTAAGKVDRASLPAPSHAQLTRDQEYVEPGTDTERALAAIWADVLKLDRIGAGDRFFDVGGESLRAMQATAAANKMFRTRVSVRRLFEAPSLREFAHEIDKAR", "assay": "In vitro phosphopantetheinylation assay of PptA", "conditions": "(3H)-(pantetheinyl)-CoASH, autoradiography"}, "[6]": {"molecular_target": "T3, TcmM (Streptomyces glaucescens, UniProt P12884)", "T3 construct": "His6 (N); His6 (C); made in house; host or cells: E. coli BL21(DE3) (pET28a-TcmM)", "T3 sequence (P12884 1-83)": "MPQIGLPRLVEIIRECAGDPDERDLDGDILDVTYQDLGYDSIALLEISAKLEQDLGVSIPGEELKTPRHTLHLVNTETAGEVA", "T3 sequence (Q9F0Q6 1-246 partner)": "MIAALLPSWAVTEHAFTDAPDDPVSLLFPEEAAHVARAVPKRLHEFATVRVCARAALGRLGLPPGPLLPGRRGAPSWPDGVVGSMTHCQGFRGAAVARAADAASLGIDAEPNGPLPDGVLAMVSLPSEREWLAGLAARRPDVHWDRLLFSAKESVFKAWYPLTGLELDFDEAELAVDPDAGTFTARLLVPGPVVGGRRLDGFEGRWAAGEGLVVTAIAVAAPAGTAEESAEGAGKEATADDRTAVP", "assay": "In vitro phosphopantetheinylation assay of PptA", "format": "biochemical, S. glaucescens", "conditions": "(3H)-(pantetheinyl)-CoASH, autoradiography"}, "[7]": {"tested_on": "BlmI", "assay": "In vitro phosphopantetheinylation assay of PptA", "conditions": "(3H)-(pantetheinyl)-CoASH, autoradiography"}, "[8]": {"tested_on": "apo-BlmI", "assay": "In vitro 4′-phosphopantetheinylation of BlmI by Sfp with [3H-pantetheine]-CoA", "format": "biochemical, Streptomyces verticillus", "conditions": "autoradiographic analysis", "procedure": "To investigate 4′-phosphopantetheinylation of BlmI in vitro, we chose the Sfp protein as the preferred PPTase, which had been isolated before from the surfactin producer Bacillus subtilis (Nakano et al. (1992) Mol. Gen. Genet. 232: 313-321).\nExpression of sfp in E. coli MV1190(pUC8-Sfp), purification of the Sfp PPTase to homogeneity, and 4′-phosphopantetheinylation of apo-BlmI by Sfp in vitro were carried out essentially according to literature procedures (Quadri et al. (1998) Biochemistry 37: 1585-1595; Nakano et al. (1992) Mol. Gen. Genet. 232: 313-321). A typical 100 μl assay solution contained 26 μM apo-BlmI, 2.9 μM Sfp, 25 μM [^3H-pantetheine]-CoA (0.9 μCi, 40 Ci/mM), 10 mM MgCl2, and 5 mM DTT, in 75 mM MES/NaOAc buffer, pH 6.0. After 30 min incubation at 37° C., the assays were stopped by addition of 5 μl of bovine serum albumin (0.2 mg/ml) and 0.9 ml of cold 10% (v/v) trichloroacetic acid (TCA). The precipitated proteins were collected by centrifugation at 14,000 rpm, 20 min, 4° C. (Eppendorf 5415C centrifuge), washed with 10% TCA three times, and resolved by SDS-PAGE on 15% gel. The ^3H-activity incorporated into holo-BlmI was similarly determined by autoradiography as described for in vivo labeling of holo-Blm with [3-^3H]-β-alanine."}, "[9]": {"molecular_target": "T4, apo-BlmI (type II peptidyl carrier protein BlmI, apo-form, produced from pBS2)", "T4 chain": "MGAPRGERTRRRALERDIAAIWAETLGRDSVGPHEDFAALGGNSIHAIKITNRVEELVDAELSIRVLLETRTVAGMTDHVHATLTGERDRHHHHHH"}, "[10]": {"molecular_target": "T5, Gsp PPTase (Aneurinibacillus migulanus, UniProt P40683)", "T5 construct": "expressed in transfected cells; host or cells: E. coli OG7001 (pBS2/pDPT-Gsp)", "T5 sequence (P40683 whole entry, looked up)": "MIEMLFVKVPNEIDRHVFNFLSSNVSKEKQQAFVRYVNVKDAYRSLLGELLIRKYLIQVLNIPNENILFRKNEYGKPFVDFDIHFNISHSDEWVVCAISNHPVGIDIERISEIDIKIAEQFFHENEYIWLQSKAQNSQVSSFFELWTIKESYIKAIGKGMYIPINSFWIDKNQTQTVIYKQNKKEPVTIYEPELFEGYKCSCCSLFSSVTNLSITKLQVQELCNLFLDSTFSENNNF", "assay": "In vivo 4′-phosphopantetheinylation of BlmI co-expressed with gsp in E. coli OG7001", "format": "cell-based", "conditions": "E. coli OG7001(pBS2/pDPT-Gsp), HPLC analysis", "excerpt": "(§1) To examine 4′-phosphopantetheinylation of BlmI in vivo, we chose E. coli OG7001 as the expression host, which is a β-alanine auxotroph derived from E. coli BL21(DE3) by P1 co-transduction of the panD mutation from E. coli SJ16 (Epple et al. (1998) J. Bacteriol. 180: 4950-4954). Upon introduction of pBS2 into E. coli OG7001, blmI was exceptionally well expressed and the overproduced BlmI protein was readily purified. […] To circumvent the poor endogenous PPTase activity, we next co-expressed blmI with the gsp gene, which was isolated from the gramicidin S producer Bacillus brevis, and encoded a PPTase that was known to 4′-phosphopantetheinylate heterologously produced PCPs in E. coli (Lambalot et al. (1996) Chem. Biol. 3: 923-936; Ku et al. (1997) Chem. Biol. 4: 203-207). We co-transformed pDPT-Gsp, in which the expression of the gsp gene was under the control of the T5/Lac promoter (Ku et al. (1997) Chem. Biol. 4: 203-207), and pBS2 into E. coli OG7001. BlmI was again very well expressed and the resulting BlmI protein was similarly purified. […]\n(§2) Samples of BlmI (30-70 μg) purified from E. coli OG7001(pBS2) or E. coli OG7001(pBS2/pDPT-Gsp) were analyzed on a Nova-Pak C18 column (5 mm×10, Waters, Milford, Mass.) using a Rainin DMAX HPLC unit. […]"}, "[11]": {"tested_on": "E. coli endogenous PPTases", "assay": "In vivo 4′-phosphopantetheinylation of BlmI in E. coli OG7001 without Gsp", "format": "cell-based", "conditions": "E. coli OG7001(pBS2), HPLC analysis", "excerpt": "as §1, §2"}}, "data": [{"molecule": "Val-A (adenylation domain of a type I NRPS from a gene cluster of Sv ATCC15003 unrelated to BLM biosynthesis)", "values": [{"measurement": "in vitro aminoacylation in trans with L-[^14C(U)]valine and ATP, SDS-PAGE and autoradiography", "setting": "[1]", "result": "the holo-BlmI was specifically labeled by L-[^14C(U)]valine in the presence of Val-A"}, {"measurement": "in vitro aminoacylation in trans with L-[^14C(U)]valine and ATP, SDS-PAGE and autoradiography", "setting": "[2]", "result": "nor incubation of L-[^14C(U)]valine with the Val-A and apo-BlmI proteins, resulted in the detection of ^14C-labeled BlmI protein"}]}, {"molecule": "Gsp PPTase from the gramicidin S producer Bacillus brevis (from UniProt P40683 1-237) (enzyme)", "values": [{"measurement": "in vivo 4′-phosphopantetheinylation on co-expression with gsp, HPLC analysis", "setting": "[3]", "result": "> 60", "unit": "%"}]}, {"molecule": "B1", "values": [{"measurement": "PPTase activity on type I ACP", "setting": "[4]", "result": "able to posttranslationally modified"}, {"measurement": "PPTase activity on type I PCP", "setting": "[5]", "result": "robust phosphopantetheinylation activity"}, {"measurement": "PPTase activity on type II ACP", "setting": "[6]", "result": "able to posttranslationally modified"}, {"measurement": "PPTase activity on type II PCP", "setting": "[7]", "result": "robust phosphopantetheinylation activity"}]}, {"molecule": "B2", "values": [{"measurement": "transfer of 4′-phosphopantetheine group from CoA to apo-BlmI", "setting": "[8]", "result": "can recognize apo-BlmI as a substrate"}, {"measurement": "in vitro 4′-phosphopantetheinylation with [^3H-pantetheine]-CoA, autoradiography", "setting": "[9]", "result": "the apo-BlmI was quantitatively labeled by [^3H-pantetheine]-CoA, and no labeling was observed in the absence of either the apo-BlmI or the Sfp PPTase protein"}]}, {"molecule": "B3", "values": [{"measurement": "overproduced BlmI modified into the holo-BlmI protein", "setting": "[10]", "result": "at least 60%"}, {"measurement": "form of purified BlmI", "setting": "[11]", "result": "essentially in the apo-form"}]}]}
